Measurements from patent US20260035462A1.
Numbering of substitutions follows the chain as printed. Each block holds one binder with its values, some of them ahead of it.

How the values were obtained:
[1] = target: biotinylated anti-human CD3ε antibody (capture surface of Example 6); assay: SPR Biacore T200; IgG 1 ug/ml over captured biotinylated anti-human CD3ε antibody, normalised to anti-human IgG surface and to the unstressed sample; sample stressed 14 d/37° C. pH 7.4
[2] = target: biotinylated anti-human CD3ε antibody (capture surface of Example 6); assay: SPR Biacore T200; IgG 1 ug/ml over captured biotinylated anti-human CD3ε antibody, normalised to anti-human IgG surface and to the unstressed sample; sample stressed 14 d/40° C. pH 6.0

Relative active concentrations (%) [1]: 93% | Relative active concentrations (%) [2]: 98%
B1: P1AF1284 H2L2 anti-idiotypic IgG1 (antibody, V domains shown)
VH: QVQLVQSGSELKKPGASVKVSCKASGYTVTDYSMNWVRQAPGQGLEWMGWINTETGEPRYTDDFTGRFVFSLDTSVSTAYLQISSLKAEDTAVYYCAREGDYDVFDYWGQGTLVTVSS
VL: DIVMTQSPDSLAVSLGERATINCKSSKSVSTSSYSYMHWYQQKPGQPPKLLIKYVSYLESGVPDRFSGSGSGTDFTLTISSLQAEDVAVYYCQHSREFPYTFGQGTKLEIK

Relative active concentrations (%) [1]: 94% | Relative active concentrations (%) [2]: 97%
B2: P1AF1283 H1L2 anti-idiotypic IgG1 (antibody, V domains shown)
VH: B1 VH with T65K
VL: B1 VL

Relative active concentrations (%) [1]: 94% | Relative active concentrations (%) [2]: 97%
B3: P1AF1285 H3L2 anti-idiotypic IgG1 (antibody, V domains shown)
VH: B1 VH with D62Q, D63G, T65K
VL: B1 VL

Relative active concentrations (%) [1]: 93% | Relative active concentrations (%) [2]: 99%
B4: P1AF1281 H1L1 anti-idiotypic IgG1 (antibody, V domains shown)
VH: B1 VH with T65K
VL: B1 VL with K24R, S25A

Relative active concentrations (%) [1]: 87% | Relative active concentrations (%) [2]: 97%
B5: P1AF1286 H3L3 anti-idiotypic IgG1 (antibody, V domains shown)
VH: B1 VH with D62Q, D63G, T65K
VL: B1 VL with K24R, S25A, H94Q

Relative active concentrations (%) [1]: 80% | Relative active concentrations (%) [2]: 98%
B6: P1AF1287 H7L5 anti-idiotypic IgG1 (antibody, V domains shown)
VH: QVQLVQSGAEVKKPGASVKVSCKASGYTVTDYSMNWVRQAPGQGLEWMGWINTETGEPRYTDDFKGRVTMTRDTSISTAYMELSRLRSDDTAVYYCAREGDYDVFDYWGQGTLVTVSS
VL: B1 VL with K24R, S25A, K53Y
